Assays:
[1] = molecular target: acetylcholine receptor (Homo sapiens, UniProt P02708); experiment: Surface plasmon resonance (SPR) affinity measurement on a biosensor chip (Biacore 3000); details: running buffer 20 mM Tris pH 7.4, peptide 0.1 to 0.5 μM, higher binding than Synake (FIG. 10)
Experimental: A surface plasmon resonance (SPR) experiment was progressed using a biosensor chip to check affinity values for acetylcholine receptors of S6_1 (SEQ ID NO: 23, WTWKGKGTLNR), i.e., discovered peptides and Synake, i.e., a positive control group (Biacore 3000, Biacore AB, Uppsala, Sweden). […] A binding ability comparing experiment was carried out under observation conditions of a running buffer of 20 mM Tris (pH 7.4), a speed of 30 ? /min, a concentration of 10 to 50 μM (Synake), and a concentration of 0.1 to 10 μM (peptides S6_1). Respective results of the binding ability comparing experiment are shown in FIG. 7 (Synake) and FIG. 8 (peptides S6_1).
A surface plasmon resonance (SPR) experiment was progressed using a biosensor chip to check affinity values for acetylcholine receptors of optimized S6_1_C9 peptides (SEQ ID NO: 28, WKGKGTLNR) prepared in Example 6 (Biacore 3000, Biacore AB, Uppsala, Sweden).
An experiment of measuring affinity values of the peptides was carried out under observation conditions of a running buffer of 20 mM Tris (pH 7.4), a speed of 30 ? /min, and a concentration of 0.1 to 0.5 μM (peptides S6_1_C9).

[2] = molecular target: acetylcholine receptor (AchR) alpha 1; experiment: SPR (Biacore 3000), AchR coupled to chip, peptide 0.1 to 0.5 uM; reference Synake
Chain of acetylcholine receptor (AchR) alpha 1 (P02708 whole entry): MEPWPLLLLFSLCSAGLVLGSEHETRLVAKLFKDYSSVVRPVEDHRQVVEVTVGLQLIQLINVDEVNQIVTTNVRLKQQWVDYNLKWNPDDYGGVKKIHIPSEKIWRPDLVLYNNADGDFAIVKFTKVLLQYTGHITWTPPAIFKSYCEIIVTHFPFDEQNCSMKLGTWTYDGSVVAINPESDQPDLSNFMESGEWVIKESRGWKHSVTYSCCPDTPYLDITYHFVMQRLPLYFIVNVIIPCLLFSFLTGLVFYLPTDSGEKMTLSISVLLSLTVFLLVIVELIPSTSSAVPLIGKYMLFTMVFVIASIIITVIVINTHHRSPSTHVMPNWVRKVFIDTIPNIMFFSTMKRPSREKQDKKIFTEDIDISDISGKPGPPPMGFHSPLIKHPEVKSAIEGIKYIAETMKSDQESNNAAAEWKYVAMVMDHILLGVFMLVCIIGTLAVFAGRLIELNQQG

Chain of acetylcholine receptor (P02708 21-457): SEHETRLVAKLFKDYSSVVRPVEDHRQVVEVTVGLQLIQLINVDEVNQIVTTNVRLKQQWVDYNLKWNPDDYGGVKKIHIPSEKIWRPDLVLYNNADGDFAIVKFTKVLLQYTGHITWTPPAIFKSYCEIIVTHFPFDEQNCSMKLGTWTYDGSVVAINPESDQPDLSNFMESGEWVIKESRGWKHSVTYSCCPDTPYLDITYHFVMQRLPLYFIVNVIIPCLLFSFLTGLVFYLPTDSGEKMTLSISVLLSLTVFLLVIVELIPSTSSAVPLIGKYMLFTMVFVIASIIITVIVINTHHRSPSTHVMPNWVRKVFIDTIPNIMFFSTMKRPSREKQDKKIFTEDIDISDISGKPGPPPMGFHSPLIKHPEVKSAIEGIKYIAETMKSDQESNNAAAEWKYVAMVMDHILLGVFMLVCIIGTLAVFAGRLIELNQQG

## WKGKGTLNR (Ach-R) [S6_1_C9]
[1]
  binding ability for acetylcholine receptor relative to Synake: about 100 times

## WKGKGTLNR [S6_1_C9]
[2]
  binding abilities, fold higher than Synake: 100 times

From patent US11472840B2, “Acetylcholine receptor-binding peptide” (AMICOGEN, INC., priority 2017, dated 2022)
